Experiment [1] concerns the target CREB-bZIP (bZIP domain of human CREB1, residues 277-339 of CREB-A) (human). As to the kind of experiment: stopped-flow intrinsic tyrosine fluorescence, urea refolding kinetics.
The next experiment concerns the target CREB-bZIP-L332V (human). Nature of the experiment: other fluorescence titration.
The target of experiment [2] is CREB-bZIP-L318V (human). Nature of the experiment: other fluorescence titration.
Experiment [3] has as its target CREB-bZIP-L318V (human). Nature of the experiment: stopped-flow fluorescence out-competition.

One may read the Kd as the free concentration of one partner at which half of the binding sites on the other are occupied at equilibrium, for simple one-to-one binding. The low end stands for tighter binding, the high end for weaker binding. For orientation: koff means a measure of how fast the partners let go of each other. Higher therefore signals a short-lived complex. By kon is commonly meant the second-order rate constant of association.

Turning to “CREB-bZIP (bZIP domain of human CREB1, residues 277-339 of CREB-A) (domain or fragment)”, in experiment [1], the Kd was 5.7 nM, the koff was determined as 0.029 s⁻¹ and the kon was determined as 1e+07 M⁻¹ s⁻¹.

In turn, CREB-bZIP-L332V (domain or fragment) gave a fold increase of Kd,M-M against CREB-bZIP with CREB-bZIP-L332V (human) of 100 fold.

For CREB-bZIP-L318V (domain or fragment), in the experiment with CREB-bZIP-L318V (human) [2], the fold increase of Kd,M-M against CREB-bZIP was determined as 1000 fold. In the experiment with CREB-bZIP-L318V (human) [3], this substance registered a k+,M-M.CRE (association of a monomer with CRE-bound monomer, inferred) of 5 nM⁻¹ s⁻¹ and a k-,M-M.CRE (dissociation of a monomer from the CRE-bound dimer) of 0.079 s⁻¹.

For the origin of these results see doi:10.1101/2025.08.25.672131.
